Columns and labels:
C3b = C3b (UniProt P01024)

C3b, P01024, sequence (P01024 whole entry, looked up): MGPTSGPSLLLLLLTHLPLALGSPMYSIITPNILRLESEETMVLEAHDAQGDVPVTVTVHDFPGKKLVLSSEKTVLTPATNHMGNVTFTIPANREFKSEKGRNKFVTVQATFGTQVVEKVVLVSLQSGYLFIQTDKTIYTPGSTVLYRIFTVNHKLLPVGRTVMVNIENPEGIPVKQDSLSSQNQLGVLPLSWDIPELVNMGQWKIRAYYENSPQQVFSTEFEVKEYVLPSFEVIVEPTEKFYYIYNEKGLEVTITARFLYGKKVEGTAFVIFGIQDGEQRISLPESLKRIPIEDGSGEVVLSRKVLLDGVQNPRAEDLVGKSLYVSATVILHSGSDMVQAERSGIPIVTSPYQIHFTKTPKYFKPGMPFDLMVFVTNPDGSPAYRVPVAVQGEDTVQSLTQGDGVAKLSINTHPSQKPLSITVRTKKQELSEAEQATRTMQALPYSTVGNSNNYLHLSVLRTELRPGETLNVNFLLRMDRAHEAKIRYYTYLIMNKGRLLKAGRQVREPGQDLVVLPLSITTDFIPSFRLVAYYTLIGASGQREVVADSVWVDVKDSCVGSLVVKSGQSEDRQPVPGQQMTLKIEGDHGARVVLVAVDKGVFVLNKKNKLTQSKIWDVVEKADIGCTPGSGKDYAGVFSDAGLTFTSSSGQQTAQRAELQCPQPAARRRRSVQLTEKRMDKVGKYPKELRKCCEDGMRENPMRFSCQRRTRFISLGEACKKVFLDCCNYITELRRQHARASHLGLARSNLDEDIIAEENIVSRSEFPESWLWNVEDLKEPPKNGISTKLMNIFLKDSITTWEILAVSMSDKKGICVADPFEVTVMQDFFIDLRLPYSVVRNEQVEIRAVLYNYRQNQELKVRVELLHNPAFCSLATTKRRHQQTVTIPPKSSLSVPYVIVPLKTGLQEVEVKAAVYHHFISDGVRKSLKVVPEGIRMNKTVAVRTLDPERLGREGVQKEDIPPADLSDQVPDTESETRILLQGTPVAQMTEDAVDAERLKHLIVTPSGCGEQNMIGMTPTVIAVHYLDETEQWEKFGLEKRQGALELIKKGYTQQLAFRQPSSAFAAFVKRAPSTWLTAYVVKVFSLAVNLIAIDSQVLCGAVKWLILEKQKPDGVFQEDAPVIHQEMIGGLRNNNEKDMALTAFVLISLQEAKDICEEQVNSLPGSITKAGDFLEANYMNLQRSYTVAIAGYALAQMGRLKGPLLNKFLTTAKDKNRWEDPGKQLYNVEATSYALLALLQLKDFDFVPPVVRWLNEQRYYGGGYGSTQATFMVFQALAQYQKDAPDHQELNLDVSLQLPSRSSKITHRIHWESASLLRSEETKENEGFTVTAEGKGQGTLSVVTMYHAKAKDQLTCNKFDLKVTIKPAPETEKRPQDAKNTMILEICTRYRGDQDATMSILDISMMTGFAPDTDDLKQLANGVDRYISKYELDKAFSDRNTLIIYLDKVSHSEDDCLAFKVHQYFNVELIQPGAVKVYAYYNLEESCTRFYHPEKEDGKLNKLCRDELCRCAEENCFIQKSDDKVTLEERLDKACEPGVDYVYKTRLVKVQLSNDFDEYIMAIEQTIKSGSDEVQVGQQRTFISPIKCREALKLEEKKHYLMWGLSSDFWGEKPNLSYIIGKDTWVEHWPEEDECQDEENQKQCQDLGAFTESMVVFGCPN

With “recombinant mature Complement Factor I from the pDEF-CFI vector in CHO-K1 cells (first Mono S peak)” the “fluid phase cofactor activity (C3b cleavage with Factor H, SDS-PAGE, Coomassie)” value (“fluid phase cofactor activity” below) (C3b) was “At 30 minutes the lowest concentration of fully processed factor I (6.25ng) (right) had cleaved C3b as evidenced by decrease in C3α -110 band and increase in C3α-68,-46, and -43 bands”.

“recombinant mature Complement Factor I produced from the Furin-IRES-CFI vector (VB171219-1127wqz) in HEK293T cells” was tested, and the “fluid phase cofactor activity” value (C3b) was “Enzymatic activity of IRES CFI and serum CFI was demonstrated to be equivilant”.

In the case of “recombinant precursor Complement Factor I (single chain with intact RRKR linker)”, the “fluid phase cofactor activity” value (C3b) is reported as “by 45 minutes 10ng of precursor CFI showed no demonstrable activity”.

B1: serum purified Complement Factor I (Complement Technology, A138) (protein)
chain: KVTYTSQEDLVEKKCLAKKYTHLSCDKVFCQPWQRCIEGTCVCKLPYQCPKNGTAVCATNRRSFPTYCQQKSLECLHPGTKFLNNGTCTAEGKFSVSLKHGNTDSEGIVEVKLVDQDKTMFICKSSWSMREANVACLDLGFQQGADTQRRFKLSDLSINSTECLHVHCRGLETSLAECTFTKRRTMGYQDFADVVCYTQKADSPMDDFFQCVNGKYISQMKACDGINDCGDQSDELCCKACQGKGFHCKSGVCIPSQYQCNGEVDCITGEDEVGCAGFASVTQEETEILTADMDAERRRIKSLLPKLSCGVKNRMHIRRKRIVGGKRAQLGDLPWQVAIKDASGITCGGIYIGGCWILTAAHCLRASKTHRYQIWTTVVDWIHPDLKRIVIEYVDRIIFHENYNAGTYQNDIALIEMKKDGNKKDCELPRSIPACVPWSPYLFQPNDTCIVSGWGREKDNERVFSLQWGEVKLISNCSKFYGNRFYEKEMECAGTYDGSIDACKGDSGGPLVCMDANNVTYVWGVVSWGENCGKPEFPGVYTKVANYFDWISYHVGRPFISQYNV
In the case of B1, the “fluid phase cofactor activity” value (C3b, P01024) is reported as “Enzymatic activity of IRES CFI and serum CFI was demonstrated to be equivilant”.

From patent US20230212635
